{"source": "paper PMC7422855", "biological_target": "human n-Glyceraldehyde-3-phosphate dehydrogenase (human) (UniProt P04406)", "experiment": "SEC-MALS; Superdex S200 10/300 in 20 mM HEPES pH 7.5, 100 mM NaCl, 1 mM TCEP; 18-angle MALS detector with differential refractive index detector"}
{"substance": "human n-Glyceraldehyde-3-phosphate dehydrogenase, P04406 1-335 (enzyme; Cys152 partially oxidised to cysteine S-sulfonic acid (average occupancy 0.31±0.17 over 20 copies in crystal forms A, C and D; not significant in crystal form B); Cys152 partially oxidised to cysteine S-sulfonic acid (average occupancy 0.31±0.17 over 20 copies in crystal forms A, C and D; not significant in crystal form B); other documents disagree on this pair)", "values": [{"measurement": "stoichiometry N", "result": 4}]}
